Experiment [1] deals with human GC-A (membrane guanylate cyclase A, natriuretic peptide receptor) (human) (UniProt P16066).
Experiment [2] shares this target. The source holds these as a separate data set.
Experiment [3] addresses human GC-B (membrane guanylate cyclase B, natriuretic peptide receptor) (human) (UniProt P20594).
Experiment [4] shares this target. This is another data set of the same source.

Chain of UniProt P16066 (P16066 33-1061): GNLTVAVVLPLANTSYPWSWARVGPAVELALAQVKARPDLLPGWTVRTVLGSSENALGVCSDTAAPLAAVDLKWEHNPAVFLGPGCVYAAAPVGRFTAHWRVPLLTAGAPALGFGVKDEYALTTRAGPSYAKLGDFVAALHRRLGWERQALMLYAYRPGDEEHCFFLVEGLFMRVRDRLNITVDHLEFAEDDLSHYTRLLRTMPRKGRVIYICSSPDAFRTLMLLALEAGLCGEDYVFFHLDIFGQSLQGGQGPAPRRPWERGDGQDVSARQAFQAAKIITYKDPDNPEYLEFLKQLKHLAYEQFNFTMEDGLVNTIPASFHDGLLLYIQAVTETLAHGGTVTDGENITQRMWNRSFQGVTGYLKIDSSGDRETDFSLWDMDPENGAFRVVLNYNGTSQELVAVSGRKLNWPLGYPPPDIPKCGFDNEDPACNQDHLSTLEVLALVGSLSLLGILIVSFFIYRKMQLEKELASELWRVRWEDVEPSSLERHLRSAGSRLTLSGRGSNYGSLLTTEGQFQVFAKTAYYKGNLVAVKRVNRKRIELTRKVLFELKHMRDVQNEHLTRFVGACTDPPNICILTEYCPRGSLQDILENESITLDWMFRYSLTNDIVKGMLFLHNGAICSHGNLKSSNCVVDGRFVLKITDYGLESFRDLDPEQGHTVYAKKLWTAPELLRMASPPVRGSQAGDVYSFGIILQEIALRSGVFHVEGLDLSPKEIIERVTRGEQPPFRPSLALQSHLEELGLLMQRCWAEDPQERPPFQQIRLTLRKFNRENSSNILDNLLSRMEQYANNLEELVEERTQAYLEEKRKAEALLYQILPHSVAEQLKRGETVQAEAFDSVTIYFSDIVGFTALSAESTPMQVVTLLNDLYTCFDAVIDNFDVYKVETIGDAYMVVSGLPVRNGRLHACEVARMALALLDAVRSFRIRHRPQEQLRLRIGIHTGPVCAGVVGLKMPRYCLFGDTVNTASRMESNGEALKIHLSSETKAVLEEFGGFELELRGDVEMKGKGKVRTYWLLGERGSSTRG
Chain of UniProt P20594 (P20594 23-1047): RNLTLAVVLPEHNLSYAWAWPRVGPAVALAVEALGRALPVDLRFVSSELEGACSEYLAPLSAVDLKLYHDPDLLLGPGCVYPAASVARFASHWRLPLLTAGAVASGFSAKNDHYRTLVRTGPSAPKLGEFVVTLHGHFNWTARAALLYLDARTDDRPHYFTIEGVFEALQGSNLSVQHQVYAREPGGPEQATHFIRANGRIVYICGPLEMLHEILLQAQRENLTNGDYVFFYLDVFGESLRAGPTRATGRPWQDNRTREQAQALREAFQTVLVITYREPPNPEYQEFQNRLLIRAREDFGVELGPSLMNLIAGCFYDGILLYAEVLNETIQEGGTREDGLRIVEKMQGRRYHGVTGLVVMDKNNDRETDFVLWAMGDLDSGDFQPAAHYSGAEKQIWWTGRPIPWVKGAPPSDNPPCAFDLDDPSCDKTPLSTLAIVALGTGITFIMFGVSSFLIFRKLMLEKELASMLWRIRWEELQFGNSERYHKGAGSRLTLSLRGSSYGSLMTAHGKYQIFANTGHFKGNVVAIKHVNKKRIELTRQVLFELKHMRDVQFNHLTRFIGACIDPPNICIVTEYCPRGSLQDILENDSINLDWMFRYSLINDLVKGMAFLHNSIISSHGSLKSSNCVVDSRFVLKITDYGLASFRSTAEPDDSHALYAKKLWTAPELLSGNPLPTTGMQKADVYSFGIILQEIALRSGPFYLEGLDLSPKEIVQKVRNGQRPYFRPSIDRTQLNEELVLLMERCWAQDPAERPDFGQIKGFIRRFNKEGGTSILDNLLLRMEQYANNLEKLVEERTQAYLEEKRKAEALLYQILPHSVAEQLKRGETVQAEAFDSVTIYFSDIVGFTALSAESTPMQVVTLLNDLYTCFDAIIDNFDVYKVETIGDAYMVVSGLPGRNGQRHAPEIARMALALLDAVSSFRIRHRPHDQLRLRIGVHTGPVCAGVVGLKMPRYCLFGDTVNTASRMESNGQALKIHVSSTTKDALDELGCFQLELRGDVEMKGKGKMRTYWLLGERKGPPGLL

In experiment [1], “human atrial natriuretic factor (1-28) (peptide)” had a stimulation of cGMP production in HEK293T cell membranes with increasing ANP, saturation above 4 μM of 10 fold.

The substance “retinal degeneration protein 3 (RD3) (from UniProt Q7Z3Z2 1-195) (natural protein)” returned an IC50 of inhibition of guanylate cyclase activity (cGMP synthesis) of GC-A in HEK293T cell membranes activated by 2 μM ANP, increasing RD3; inhibition not complete at 0.5-1 μM RD3 in experiment [2] of 24 nM. For the same substance, the IC50 of inhibition of guanylate cyclase activity (cGMP synthesis) of GC-B in HEK293T cell membranes activated by 2 μM CNP, increasing RD3; inhibition not complete at 0.5-1 μM RD3 in experiment [3] came out at 29 nM.

Substance human c-type natriuretic peptide (1-53) returned a stimulation of cGMP production in HEK293T cell membranes with increasing CNP, saturation above 4 μM in experiment [4] of 10 fold.

(Values after article PMC9812585.)
